The assay has as its target T1, cynomolgus IL-18Rα on CHO-K1 cells (cynomolgus, UniProt A0A2K5V3J9 19-540).
T1 construct: whole, on cells; also called CHO CyIL-18Rα
T1 sequence: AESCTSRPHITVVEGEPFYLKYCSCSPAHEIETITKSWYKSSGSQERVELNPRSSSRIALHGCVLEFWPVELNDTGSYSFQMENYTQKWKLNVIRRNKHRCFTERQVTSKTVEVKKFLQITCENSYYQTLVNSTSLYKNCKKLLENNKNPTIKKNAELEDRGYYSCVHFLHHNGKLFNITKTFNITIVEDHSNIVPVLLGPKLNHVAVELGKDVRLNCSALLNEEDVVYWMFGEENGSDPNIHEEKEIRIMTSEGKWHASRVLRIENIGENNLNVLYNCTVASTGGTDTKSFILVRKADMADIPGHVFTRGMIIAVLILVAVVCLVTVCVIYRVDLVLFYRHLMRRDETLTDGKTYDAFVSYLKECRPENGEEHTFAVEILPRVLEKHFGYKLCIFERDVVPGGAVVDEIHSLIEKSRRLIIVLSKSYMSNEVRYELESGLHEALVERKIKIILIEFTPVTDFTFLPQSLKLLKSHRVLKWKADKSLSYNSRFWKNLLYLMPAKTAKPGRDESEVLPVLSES
Description: cell ELISA on CHO-K1 cells expressing cynomolgus IL-18Rα. The method, then: The recombinant cell lines CHO-K1 expressing cynomolgus IL-18Rα or cynomolgus IL-18Rα+β were stained with the Mab_IL-18R antibodies in a cell ELISA. Controls are CHO-K1 untransfected cells. Cells were grown in F-12 medium (GIBCO) with Glutamax-1 (GIBCO Cat. No. 31331-028)+10% FCS (PAN Cat. No. 2802-P920707). For cultivation of the recominant cell lines 250 μg/ml G418 (Geneticin, GIBCO, Cat. No. 10131-019) was added. As control antibody anti hIL-18Ralpha Antibody Mab840 (Mouse monoclonal IgG1 from R&D Systems, Cat. MAB 840) and as detection antibody goat anti-mouse IgG (H+L)-HRP conjugate (BioRad) was added. For running the assay, on day 1 2×10⁴ CHO_CynoIL-18Rα, CHO_CynoIL-18Rα+β or untransfected CHO cells in 50 μl F-12/well were seeded in a 96-well plate and incubated overnight at 37° C. On day 2, 50 μl supernatant or (2×) purified antibody diluted in medium or 50 μl Hybridoma supernatant were added and incubated for 2 h at 4° C. Supernatant was aspirated and 100 μl/well Glutaraldehyde fixing solution (25% stock solution Grade EM; final concentration=0.05% in PBS) was added and incubated for 10 minutes at room temperature. For washing 2 times 200 μl PBS/well/wash was added and removed. 50 μl of ELISA detection-antibody diluted in ELISA blocking reagent (ELISA blocking stock reagent diluted 1:10 in PBS) was added. […] The plates were measured at 450 nm-620 nm using an ELISA reader (TECAN).

B1: Mab 1G12 (antibody, V domains shown)
VH: QVQLQQPGAELVKPGASVRMSCKTSDYTFTSNWMHWVKQRPGQGLEWIGTIDPSDSYTYYNQKFKGRATLTVDTSSSTAYMQLSSLTSEDSAVYYCTTSGDYDADRYFDVWGAGTTVTVSS
VL: DIVLTQSPASLGVSLGQRATISCRASKSVSTSGDSYMHWYQQKPGQSPKLLIYLASNLESGVPARFSGSGSGTDFTLNIHPVEEEDAATYYCQQSRELPLSFGAGTKLELK
notes: Monoclonal antibody from immunized NMRI mice; detected with anti-mouse IgG1-PE / anti-mouse IgG; also called F20.1G12; monoclonal antibody 1G12
As to B1, the concentration giving a half-maximal response (EC50) amounted to 0.0186 µg/mL.

For the origin of these results see patent US20120156198A1 (Hoffmann-La Roche, published 2012).
